Source: patent publication US20180022822A1, “NOVEL ANTI-FIBROBLAST ACTIVATION PROTEIN (FAP) BINDING AGENTS AND USES THEREOF” (Mabimmune Diagnostics AG, priority 2016, published 2018)

Experiments:
[1] = tested on: arterial occlusion (thrombosis); test: carotid artery photochemical injury-induced thrombosis model; format: in vivo, mouse
Description: The carotid artery photochemical injury-induced thrombosis model begins with anesthesia by intraperitoneal injection of sodium pentobarbital (87 mg/kg body weight). After slight tail warming (using warm water) rose bengal (10 mg/mL in PBS) is injected into the tail vein in a volume of 0.12 mL at a concentration of 50 mg/kg. Mice will then be secured in a supine position (with the head pointing towards the operator) and placed on a heating pad (rectal temperature will be monitored) under a dissecting microscope. Following a (2.5-3 cm) midline cervical incision and a small incision of the larynx to provide a tracheostoma, by blunt preparation the right common carotid artery is exposed and cleared of connective tissue. A surgical stitch is employed to fix the sternocleidomastoid muscle aside to the right and increase access area to the right carotid artery. Care must be taken to avoid excessive vessel manipulation during procedures. Curved-tip tweezers will be employed to slide under the vessel (from the left side) and gently lift it so as to place the probe under and around it. The probe will be placed as proximal as the access area allows it to be and its connection wire should then be placed on a micromanipulator to fine-adjust its position. (The probe should be perfectly aligned with the vessel so as not to cause any resistance to flow). Little surgical ultrasonic gel should be applied on top of the probe to increase signal quality. Within 6 minutes of Rose Bengal injection, a laser beam will be aimed at the carotid artery and kept at fixed distance of 6 cm for 60 minutes. Flow will be measured during these 60 minutes and for further 60 minutes (max time elapse 120 minutes) or until occlusion occurs. Occlusion is considered as a constant (≧1 min) flow below 0.1 ml/min. Mice are euthanized by an overdose of pentobarbital immediately (25 mg) after the occlusion analysis is completed.
Mice will be placed on a heating pad, to avoid a drop of body temperature. Heart rate (probe measuring the blood flow will also measure the heart rate) will be monitored during the surgery. Anethesia depth will be checked before starting the surgery and during the experiment by pedal withdrawal reflex (animals hind limb will be extended and the interdigital webbing of the foot will firmly pinched by the use of an atraumatic forceps; if there is no withdrawal reaction to the toe pinch, animals will be judged deep enough).
The chosen dose of anesthesia sodium pentobarbital (87 mg/kg body weight) is sufficient to keep the animal in deep anesthesia for the whole duration of the experiment. No second dosing is necessary. […]

[2] = tested on: human blood plasma clotting; test: rotational thromboelastometry (ROTEM, NATEM) of human blood plasma
Description: Two batches of peripheral blood were taken from a single healthy subject in sodium citrate tubes and platelet-free blood plasma was prepared by centrifugation. Blood plasma from each tube was pooled and immediately aliquoted for storage at −80° C. The plasma has an FAP level of 130 ng/ml by ELISA. Plasma samples were treated with NI-206.82C2 (n=3) against FAP or 43A11 control (n=3) diluted in sterile saline and added to fresh fast thawed plasma such that the final concentration of antibody in the sample was 0.000667 nM, 0.00667 nM, 0.0667 nM, 0.667 nM 6.667 nM of plasma. Following 1 hr incubation with the antibody at 37° C., NATEM analysis was performed according to the manufacturer's instructions by using STAR-TEM reagent to observe the native blood clotting process after an incubation time with the antibodies of 1 h at 37° C. with the antibody before starting measurement. Statistical analysis was performed using a two-way ANOVA (*p<0.05, ** p<0.01, *** p<0.005, **** p<0.001).

[3] = increasing antibody concentrations

B1: NI-206.82C2: human-derived recombinant anti-FAP antibody; VH SEQ ID NO: 2 or 4 (PIMC), VL SEQ ID NO: 6 (antibody, V domains shown)
VH: QVQLQQSGPGLVKPSQTLSLTCAISGDSVSSNSVTWNWIRQSPSRGLEWLGRTYYRSKWYNDYAVSVKGRITINPDTSKNQFYLQLKSVTPEDAAVYYCARDSSILYGDYWGQGTLVTVSS
VL: QAVLTQPSSLSASPGASASLTCTLPSGINVGTYRIFWFQQKPGSPPQYLLSYKSDSDNHQGSGVPSRFSGSKDASANAGILLISGLQSEDEADYYCMIWHSSAWVFGGGTKLTVL
With B1 the occlusion time ([1]; 20 mg/kg i.v. versus vehicle control, n=4) was “significantly prolonged”, the “median time to occlusion” value ([1]; 2, 7 and 20 mg/kg versus PBS and 43A11) was “dose-dependent increase” and the “Log-rank hazard ratio of arterial occlusion” value ([1]; versus 43A11 isotype control) was 0.04. The “dose at which significant increase in median time to occlusion starts” value ([1]; versus PBS and 43A11 at 20 mg/kg) was 2 mg/kg, the clot formation time ([2]; 0.000667-6.667 nM antibody) was “dose dependent prolongation” and the clot rigidity [2, 3] was “reduces”. For the same molecule, the maximum clot elasticity [2, 3] was “decreases” and the maximum clotting angle [2, 3] was “reduces”.
